Laboratory results from US20230002728A1, “STEM CELL FATE ENGINEERING METHODS” (Wisconsin Alumni Research Foundation, priority 2021, published 2023).

Tests used:
Format in all cases: cell-based, human
H9 hESCs [1] = experiment: ALK inhibitor test on BMP4 patterns (BRA immunostaining, day 2); details: 1 μM A83-01, 10 μM SB-431542 or 2 μM LDN-212854 added for the initial 24 h
Method: For localized mesendoderm differentiation, 2-2.5 ng/μl BMP4 solution was placed with various patterns on different substrates. For glass surfaces, 1.5 ng/μl BMP4 solution was used. 5 ng/μl noggin solution was placed as a droplet to show an inhibitory effect of noggin on BMP4-induced mesendoderm differentiation. After washing, substrate was coated with Matrigel® for 2 hours as described above. Glass was coated with Matrigel® overnight. 0.025 mg/ml Synthemax (Corning, 3535) (final concentration, diluted in water) was added to a washed TC-treated plate and the plate was incubated for 2 hours at room temperature prior to cell seeding. 5 μg/ml truncated recombinant human vitronectin (Gibco, A14700) diluted in PBS was added to a washed TC-treated plate and the plate was incubated for 1 hour at room temperature prior to cell seeding. After ECM coating, the ECM solution was aspirated and hPSCs were singularized using Accutase (10 min incubation at 37° C.), resuspended in mTeSR1 supplemented with 5 μM Y-27632, and seeded at 5×10^5 to about 1×10^6 cells/cm^2 on coated substrates (day 0). […]
(§1) For immunostaining of other protein markers, cells were fixed in 4% paraformaldehyde (Electron Microscopy Sciences, 15710-S) in PBS for 15 min at room temperature, washed with PBS three times, and incubated in diluted primary antibodies in 5% nonfat dry milk (Santa Cruz Biotechnology, sc-2324)/0.4% Triton X-100 (Fisher Scientific, BP151-500) PBS overnight at 4° C. […] After secondary antibody staining, the cells were washed with PBS three times, incubated in 2 μg/ml Hoechst 33342 diluted in PBS for 5 min at room temperature, washed with PBS two times, and analyzed under the fluorescence microscope.
Next, BMP4 solution was placed on TC-treated plates in various patterns (droplet, letters, circle, heart, and star), and hPSCs seeded onto the substrate in mTeSR1 maintenance medium. […] Since the presence of inhibitory morphogens is also important in developmental patterning, a BMP inhibitor, noggin, was evaluated for antagonism to localized BMP4-induced mesendoderm differentiation. […]

[2] = system: H9 hESC-derived cardiac progenitor cells (CPCs); experiment: Localized EpiC differentiation of hPSC-derived cardiac progenitors on morphogen droplets (WT1 immunostaining); details: droplets on TC-coated PS plate, 7d after cardiac progenitor seeding
Method: For localized EpiC differentiation, BMP4 (2 ng/μl)+Wnt3a (40 ng/μl) solution was placed in PDMS stencil masks either on a TC-treated plate or an ibidi 35 mm polymer dish. Matrigel® coating was performed as described above. Cryopreserved CPCs were thawed and seeded at 500,000-550,000 cells/cm^2 in LaSR medium (advanced DMEM/F12 (Gibco, 12634-010) supplemented with 60 μg/ml ascorbic acid (Sigma, A8960) and 2.5 mM Glutamax (Gibco, 35050-061)) supplemented with 5 μM Y-27632). Medium was changed daily with fresh LaSR medium until analysis. Time lapse imaging of CPCs derived from H9-hTNNT2-GFP hESC during localized EpiC differentiation was performed using a fluorescence microscope equipped with a heating stage top incubator. 18 days after CPC seeding, cells cultured on an ibidi polymer dish were immunostained and imaged using a confocal microscope (Nikon, A1R-SI+) for the analysis of sarcomere structure.
Spatial organization of cell fate commitment is important throughout development. […] These cardiac progenitors can further differentiate into CMs without any specific external signaling factors and can also differentiate into EpiCs upon activation of canonical Wnt signaling (Bao et al. (2016) Nature biomed. Eng. 1, 1-12).

H9 hESCs [3] = experiment: Localized definitive endoderm differentiation of hPSCs on adsorbed activin A patterns (SOX17/FOXA2 immunostaining)
Method: For immunostaining of other protein markers, cells were fixed in 4% paraformaldehyde (Electron Microscopy Sciences, 15710-S) in PBS for 15 min at room temperature, washed with PBS three times, and incubated in diluted primary antibodies in 5% nonfat dry milk (Santa Cruz Biotechnology, sc-2324)/0.4% Triton X-100 (Fisher Scientific, BP151-500) PBS overnight at 4° C. Then, the cells were washed with PBS three times and incubated in diluted secondary antibody in 5% nonfat dry milk/0.4% Triton X-100 PBS for 30 min at room temperature. After secondary antibody staining, the cells were washed with PBS three times, incubated in 2 μg/ml Hoechst 33342 diluted in PBS for 5 min at room temperature, washed with PBS two times, and analyzed under the fluorescence microscope.
For localized definitive endoderm differentiation, 25 ng/μl activin A solution was placed with various patterns on a TC-treated plate. Matrigel® coating and hPSC seeding was performed as the same way described above. Medium was changed daily with RPMI1640 medium supplemented with 2% FBS. For the ALK inhibitor test, 1 μM A83-01 (Tocris, 2939), 10 μM SB-431542 (Tocris, 1614), or 2 μM LDN-212854 (Tocris, 6151) was added to mTeSR1 at day 0. […]

H9 hESCs [4] = experiment: Noggin droplet pattern, inhibitory effect on BMP4-induced mesendoderm differentiation (BRA immunostaining); details: 5 ng/μl noggin droplet on TC-treated PS; mTeSR1 with 10 ng/ml BMP4, 2 days
Method: For localized mesendoderm differentiation, 2-2.5 ng/μl BMP4 solution was placed with various patterns on different substrates. For glass surfaces, 1.5 ng/μl BMP4 solution was used. 5 ng/μl noggin solution was placed as a droplet to show an inhibitory effect of noggin on BMP4-induced mesendoderm differentiation. After washing, substrate was coated with Matrigel® for 2 hours as described above. Glass was coated with Matrigel® overnight. 0.025 mg/ml Synthemax (Corning, 3535) (final concentration, diluted in water) was added to a washed TC-treated plate and the plate was incubated for 2 hours at room temperature prior to cell seeding. […]
as §1, with “microscope. […]” for “microscope.”

NC(=O)c1ccc(-c2nc(-c3ccc4c(c3)OCO4)c(-c3ccccn3)[nH]2)cc1 [SB431542]
BRA expression in cells on the BMP4-patterned area (H9 hESCs [1]): suppressed BRA expression

c1cc(-c2cnn3cc(-c4ccc(N5CCNCC5)cc4)cnc23)c2cccnc2c1 [LDN-212854]
BRA expression in cells on the BMP4-patterned area (H9 hESCs [1]): suppressed BRA expression

Cc1cccc(-c2nn(C(=S)Nc3ccccc3)cc2-c2ccnc3ccccc23)n1 [A83-01]
BRA expression in cells on the BMP4-patterned area (H9 hESCs [1]): suppressed BRA expression

B1: Wnt3a: human recombinant Wnt3a (R&D Systems, 5036-WN-010), morphogen (protein, UniProt P56704 19-352, looked up)
Protein Wnt-3a: SYPIWWSLAVGPQYSSLGSQPILCASIPGLVPKQLRFCRNYVEIMPSVAEGIKIGIQECQHQFRGRRWNCTTVHDSLAIFGPVLDKATRESAFVHAIASAGVAFAVTRSCAEGTAAICGCSSRHQGSPGKGWKWGGCSEDIEFGGMVSREFADARENRPDARSAMNRHNNEAGRQAIASHMHLKCKCHGLSGSCEVKTCWWSQPDFRAIGDFLKDKYDSASEMVVEKHRESRGWVETLRPRYTYFKVPTERDLVYYEASPNFCEPNPETGSFGTRDRTCNVSSHGIDGCDLLCCGRGHNARAERRREKCRCVFHWCCYVSCQECTRVYDVHTCK
EpiC differentiation (WT1 expression) [2]: limited if any EpiC differentiation

B2: activin A: human recombinant activin A (R&D Systems, 338-AC-010), morphogen (protein, UniProt P08476 311-426, looked up)
Inhibin beta A chain: GLECDGKVNICCKKQFFVSFKDIGWNDWIIAPSGYHANYCEGECPSHIAGTSGSSLSFHSTVINHYRMRGHSPFANLKSCCVPTKLRPMSMLYYDDGQNIIKKDIQNMIVEECGCS
endoderm differentiation (patterned SOX17 expression) (H9 hESCs [3]; 25 ng/μl activin A adsorbed on TC-treated plate, day 3): induced localized endoderm differentiation | cells expressing SOX17 and FOXA2 on the patterned area (H9 hESCs [3]; day 5 of differentiation): almost all of the cells

B3: noggin: human recombinant noggin (R&D Systems, 6057-NG-025), a BMP inhibitor (protein, UniProt Q13253 28-232, looked up)
Noggin: QHYLHIRPAPSDNLPLVDLIEHPDPIFDPKEKDLNETLLRSLLGGHYDPGFMATSPPEDRPGGGGGAAGGAEDLAELDQLLRQRPSGAMPSEIKGLEFSEGLAQGKKQRLSKKLRRKLQMWLWSQTFCPVLYAWNDLGSRFWPRYVKVGSCFSKRSCSVPEGMVCKPSKSVHLTVLRWRCQRRGGQRCGWIPIQYPIISECKCSC
effect on BMP4-induced mesendoderm differentiation (BRA expression) (H9 hESCs [4]): inhibited BMP4-induced mesendoderm differentiation
